Data: paper doi:10.1101/238154 (bioRxiv, 2017)

How the values were obtained:
[1] = target: ubiquitin (untagged) (UniProt P0CG47 1-76); assay: ITC
[2] = target: N-terminally TAMRA-labeled monoubiquitin (UniProt P0CG47 1-76, TAMRA on the N-terminus); assay: fluorescence polarisation

B1: SAGA DUB module containing Ubp8^C146A (complex)
chain 1: MSICPHIQQVFQNEKSKDGVLKTCNAARYILNHSVPKEKFLNTMKCGTCHEINSGATFMCLQCGFCGCWNHSHFLSHSKQIGHIFGINSNNGLLFCFKCEDYIGNIDLINDAILAKYWDDVCTKTMVPSMERRDGLSGLINMGSTAFMSSILQCLIHNPYFIRHSMSQIHSNNCKVRSPDKCFSCALDKIVHELYGALNTKQASSSSTSTNRQTGFIYLLTCAWKINQNLAGYSQQDAHEFWQFIINQIHQSYVLDLPNAKEVSRANNKQCECIVHTVFEGSLESSIVCPGCQNNSKTTIDPFLDLSLDIKDKKKLYECLDSFHKKEQLKDFNYHCGECNSTQDAIKQLGIHKLPSVLVLQLKRFEHLLNGSNRKLDDFIEFPTYLNMKNYCSTKEKDKHSENGKVPDIIYELIGIVSHKGTVNEGHYIAFCKISGGQWFKFNDSMVSSISQEEVLKEQAYLLFYTIRQVN
chain 2: MTEETITIDSISNGILNNLLTTLIQDIVARETTQQQLLKTRYPDLRSYYFDPNGSLDINGLQKQQESSQYIHCENCGRDVSANRLAAHLQRCLSRGARR
chain 3: MTMDTAQLKSQIQQYLVESGNYELISNELKARLLQEGWVDKVKDLTKSEMNINESTNFTQILSTVEPKALEMVSDSTRETVLKQIREFLEEIVDTQ
chain 4: MRSGDAEIKGIKPKVIEEYSLSQGSGPSNDSWKSLMSSAKDTPLQYDHMNRESLKKYFNPNAQLIEDPLDKPIQYRVCEKCGKPLALTAIVDHLEN
[1]
  Kd: 430 mM

B2: USP4(8-925) wild-type (enzyme)
chain: RERPDAETQKSELGPLMRTTLQRGAQWYLIDSRWFKQWKKYVGFDSWDMYNVGEHNLFPGPIDNSGLFSDPESQTLKEHLIDELDYVLVPTEAWNKLLNWYGCVEGQQPIVRKVVEHGLFVKHCKVEVYLLELKLCENSDPTNVLSCHFSKADTIATIEKEMRKLFNIPAERETRLWNKYMSNTYEQLSKLDNTVQDAGLYQGQVLVIEPQNEDGTWPRQTLQSKSSTAPSRNFTTSPKSSASPYSSVSASLIANGDSTSTCGMHSSGVSRGGSGFSASYNCQEPPSSHIQPGLCGLGNLGNTCFMNSALQCLSNTAPLTDYFLKDEYEAEINRDNPLGMKGEIAEAYAELIKQMWSGRDAHVAPRMFKTQVGRFAPQFSGYQQQDSQELLAFLLDGLHEDLNRVKKKPYLELKDANGRPDAVVAKEAWENHRLRNDSVIVDTFHGLFKSTLVCPECAKVSVTFDPFCYLTLPLPLKKDRVMEVFLVPADPHCRPTQYRVTVPLMGAVSDLCEALSRLSGIAAENMVVADVYNHRFHKIFQMDEGLNHIMPRDDIFVYEVCSTSVDGSECVTLPVYFRERKSRPSSTSSASALYGQPLLLSVPKHKLTLESLYQAVCDRISRYVKQPLPDEFGSSPLEPGACNGSRNSCEGEDEEEMEHQEEGKEQLSETEGSGEDEPGNDPSETTQKKIKGQPCPKRLFTFSLVNSYGTADINSLAADGKLLKLNSRSTLAMDWDSETRRLYYDEQESEAYEKHVSMLQPQKKKKTTVALRDCIELFTTMETLGEHDPWYCPNCKKHQQATKKFDLWSLPKILVVHLKRFSYNRYWRDKLDTVVEFPIRGLNMSEFVCNLSARPYVYDLIAVSNHYGAMGVGHYTAYAKNKLNGKWYYFDDSNVSLASEDQIVTKAAYVLFYQRRDD
[2]
  binding result: binds

B3: USP4(8-925) C311A mutant (enzyme)
chain: RERPDAETQKSELGPLMRTTLQRGAQWYLIDSRWFKQWKKYVGFDSWDMYNVGEHNLFPGPIDNSGLFSDPESQTLKEHLIDELDYVLVPTEAWNKLLNWYGCVEGQQPIVRKVVEHGLFVKHCKVEVYLLELKLCENSDPTNVLSCHFSKADTIATIEKEMRKLFNIPAERETRLWNKYMSNTYEQLSKLDNTVQDAGLYQGQVLVIEPQNEDGTWPRQTLQSKSSTAPSRNFTTSPKSSASPYSSVSASLIANGDSTSTCGMHSSGVSRGGSGFSASYNCQEPPSSHIQPGLCGLGNLGNTAFMNSALQCLSNTAPLTDYFLKDEYEAEINRDNPLGMKGEIAEAYAELIKQMWSGRDAHVAPRMFKTQVGRFAPQFSGYQQQDSQELLAFLLDGLHEDLNRVKKKPYLELKDANGRPDAVVAKEAWENHRLRNDSVIVDTFHGLFKSTLVCPECAKVSVTFDPFCYLTLPLPLKKDRVMEVFLVPADPHCRPTQYRVTVPLMGAVSDLCEALSRLSGIAAENMVVADVYNHRFHKIFQMDEGLNHIMPRDDIFVYEVCSTSVDGSECVTLPVYFRERKSRPSSTSSASALYGQPLLLSVPKHKLTLESLYQAVCDRISRYVKQPLPDEFGSSPLEPGACNGSRNSCEGEDEEEMEHQEEGKEQLSETEGSGEDEPGNDPSETTQKKIKGQPCPKRLFTFSLVNSYGTADINSLAADGKLLKLNSRSTLAMDWDSETRRLYYDEQESEAYEKHVSMLQPQKKKKTTVALRDCIELFTTMETLGEHDPWYCPNCKKHQQATKKFDLWSLPKILVVHLKRFSYNRYWRDKLDTVVEFPIRGLNMSEFVCNLSARPYVYDLIAVSNHYGAMGVGHYTAYAKNKLNGKWYYFDDSNVSLASEDQIVTKAAYVLFYQRRDD
[2]
  Kd: 0.6 ± 0.17 nM
